Test results from PMC3936849 (2014).

How the values were obtained:
Assay in all cases: SPR
[1] = target: T1, ALK1 extracellular domain, C-terminal Fc-tagged chimera (UniProt P37023 22-118)
[2] = target: T2, ActRIIa extracellular domain, C-terminal Fc-tagged chimera (UniProt P27037 20-135)
[3] = target: T3, ActRIIb extracellular domain, C-terminal Fc-tagged chimera (UniProt Q13705 19-137)
T3 chain: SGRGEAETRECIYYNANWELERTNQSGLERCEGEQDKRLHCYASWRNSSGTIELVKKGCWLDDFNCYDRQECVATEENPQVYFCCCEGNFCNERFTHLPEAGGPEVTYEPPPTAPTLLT

[4] = target: T4, BMPRII extracellular domain, C-terminal Fc-tagged chimera (UniProt Q13873 27-150)
T4 chain: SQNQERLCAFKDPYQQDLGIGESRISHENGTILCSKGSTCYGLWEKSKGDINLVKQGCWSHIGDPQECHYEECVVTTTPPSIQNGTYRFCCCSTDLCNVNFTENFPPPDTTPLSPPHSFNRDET

[5] = target: T1, ALK1 extracellular domain, C-terminal …; remark: listed apart in the source
[6] = target: T2, ActRIIa extracellular domain, …; remark: listed apart in the source
[7] = target: T3, ActRIIb extracellular domain, …
[8] = target: T4, BMPRII extracellular domain, C-terminal …

T1 sequence (P37023 22-118, change not shown): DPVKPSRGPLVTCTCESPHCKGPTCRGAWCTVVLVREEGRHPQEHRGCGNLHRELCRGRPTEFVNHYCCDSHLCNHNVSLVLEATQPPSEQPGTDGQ
T2 sequence (P27037 20-135, change not shown): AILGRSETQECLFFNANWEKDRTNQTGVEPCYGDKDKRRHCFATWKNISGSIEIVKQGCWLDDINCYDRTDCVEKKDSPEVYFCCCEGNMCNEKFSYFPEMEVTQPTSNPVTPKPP

Kd [1]: 209 pM | Kd [2]: 4270 pM | Kd [3]: 154 pM | Kd [4]: 330 pM | koff [5]: 0.000884 s⁻¹ | koff [6]: 0.0121 s⁻¹ | koff [7]: 0.00152 s⁻¹ | koff [8]: 0.00153 s⁻¹
B1: MB109 (E. coli-derived mature domain of human bone morphogenetic protein-9, refolded functional dimer) (ligand)
chain: MSAGAGSHCQKTSLRVNFEDIGWDSWIIAPKEYEAYECKGGCFFPLADDVTPTKHAIVQTLVHLKFPTKVGKACCVPTKLSPISVLYKDDMGVPTLKYHYEGMSVAECGCR
